Consider 2 substances from patent US20160082074A1.

Experiment [1] deals with human cyclophilin A (human) (UniProt P62937). Kind of experiment: cell-based or functional assay.
A further experiment has as its target calcineurin. The experiment in a line: cell-based or functional assay.

Chain of human cyclophilin A (human) (P62937 whole entry): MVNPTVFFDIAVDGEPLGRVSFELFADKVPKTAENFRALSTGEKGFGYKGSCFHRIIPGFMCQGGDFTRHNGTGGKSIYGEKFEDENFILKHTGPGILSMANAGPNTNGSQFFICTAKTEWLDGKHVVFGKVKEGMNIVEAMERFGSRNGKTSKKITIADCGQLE

Regarding cyclosporin A (peptide), the In vitro inhibition human CypA IC50 [nM] (protease-coupled PPIase assay) in experiment [1] came out at 9.1 nM.

With CypA/CsA complex, the In vitro inhibition CnA IC50 with calcineurin turned out to be 50 nM.
